The target in the assay is BCL-xLΔC (BCL-xL construct lacking 22 C-terminal residues), Q07817.

One may read the Kd as the equilibrium constant for the complex coming apart. Low readings indicate tighter binding, high ones weaker binding.

Chain of BCL-xLΔC (BCL-xL construct lacking 22 C-terminal residues), Q07817 (Q07817 1-211, stated change not applied): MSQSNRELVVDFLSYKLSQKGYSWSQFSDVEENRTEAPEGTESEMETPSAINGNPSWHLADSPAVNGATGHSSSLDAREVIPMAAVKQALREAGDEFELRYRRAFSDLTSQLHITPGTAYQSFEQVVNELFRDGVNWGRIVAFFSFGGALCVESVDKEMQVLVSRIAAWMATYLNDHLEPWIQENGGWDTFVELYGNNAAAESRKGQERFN

B1: BAX BH3 domain peptide (peptide)
chain: STKKLSECLKRIGDELDSNM
modifications: not checked
As to B1, the Kd came out at 500 nM.

Values taken from article PMC4134560.
